This experiment concerns the target T1, PYCO1 (pyrenoid component 1), recombinant, residues 31 to 592 (Phaeodactylum tricornutum).
T1 chain: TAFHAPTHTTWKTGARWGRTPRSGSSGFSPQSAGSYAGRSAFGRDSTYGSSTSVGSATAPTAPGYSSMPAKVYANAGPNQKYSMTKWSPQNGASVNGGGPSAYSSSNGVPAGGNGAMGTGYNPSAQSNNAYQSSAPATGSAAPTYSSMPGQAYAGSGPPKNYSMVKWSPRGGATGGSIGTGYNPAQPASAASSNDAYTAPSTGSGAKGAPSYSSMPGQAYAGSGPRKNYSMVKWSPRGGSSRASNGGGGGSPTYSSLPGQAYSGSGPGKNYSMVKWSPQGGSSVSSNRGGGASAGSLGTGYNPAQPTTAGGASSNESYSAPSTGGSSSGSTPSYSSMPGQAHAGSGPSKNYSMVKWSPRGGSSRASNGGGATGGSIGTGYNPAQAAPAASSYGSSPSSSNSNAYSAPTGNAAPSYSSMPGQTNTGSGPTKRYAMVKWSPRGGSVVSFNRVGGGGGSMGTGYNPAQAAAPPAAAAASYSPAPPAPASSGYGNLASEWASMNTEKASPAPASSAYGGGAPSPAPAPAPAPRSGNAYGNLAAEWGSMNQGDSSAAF
The experiment is described as follows: co-sedimentation; heterotypic: Rubisco and PYCO1 (or variant) mixed at various ratios, 20 mM Tris-HCl pH 8.0, 150 mM NaCl; condensates sedimented and analysed. The conditions noted are these: both partners purified.

B1: Phaeodactylum tricornutum Rubisco (L8S8 holoenzyme) (complex)
chain 1: MSQSVSERTRIKSDRYESGVIPYAKMGYWDAAYAVKNTDVLALFRITPQPGVDPVEAAAAVAGESSTATWTVVWTDLLTACDRYRAKAYRVDPVPNTTDQYFAFIAYECDLFEEGSLANLTASIIGNVFGFKAVSALRLEDMRIPHSYLKTFQGPATGVIVERERLNKYGIPLLGATVKPKLGLSGKNYGRVVYEGLKGGLDFLKDDENINSQPFMRWRERFLYCMEGINRASAATGETKGSYLNITAGTMEEVYKRAEYAKTVGSIVVMIDLVMGYTAIQSAAIWARDNDLILHLHRAGNSTYARQKNHGINFRVICKWMRMCGVDHIHAGTVVGKLEGDPLMIKGFYDTLLLTHLNVNLPYGIFFEMTWASLRKCMPVASGGIHCGQMHQLVHYLGDDVVLQFGGGTIGHPDGIQAGATANRVALEAMILARNEGADYFNSDIGPQILRNAAKTCGPLQTALDLWKDISFNYTSTDTSDFSVTPTANV
chain 2: MRLTQGCFSFLPDLTDQQIEKQIAYCITKGWAMNVEWTDDPHPRNSYWELWGLPLFDVKDPASVMFELREARKSCAAGYIRINAFNAAYGTESCVMSFIVNRPSNEPGFYLERQELEGRRIAYTTKSYSVQANPEGGRY
notes: Rubisco large subunit (LSU) of Phaeodactylum tricornutum, Form ID; Rubisco small subunit (SSU) of Phaeodactylum tricornutum, Form ID; For microscopy spiked with 0.3% or 0.6% atto-594-labeled PtRubisco; also called PtRubisco; diatom Rubisco; source: purified directly from diatoms (P. tricornutum); endogenous, soluble algal lysate (immunoprecipitation); copies: 8 + 8
The stoichiometry N is the number of molecules, sites or subunits per partner or assembly. As for B1, the “stoichiometry N” value is 3 Rubisco (L8S8) per PYCO1.

The values are drawn from paper PMC10288592, “A linker protein from a red-type pyrenoid phase separates with Rubisco via oligomerizing sticker motifs” (Proceedings of the National Academy of Sciences of the …, 2023).
